According to US20170189510A1:

Target: HLA-A*24 (human)
Experiment: UV-ligand exchange, anti-b2m ELISA

| Binder | peptide exchange yield |
| --- | --- |
| RYLNKAFHI [peptide SEQ ID No 284 …] | 50 to 75% |
| IYQLDTASI [peptide SEQ ID No 182 …] | 50 to 75% |
| LYNKGFIYL [peptide SEQ ID No 159 …] | > 75% |
| AYTLIAPNI [peptide SEQ ID No 169 …] | 50 to 75% |
| QYLENLEKL [peptide SEQ ID No 224 …] | 50 to 75% |
| YYVESGKLF [peptide SEQ ID No 166 …] | > 75% |
| DYTTWTALL [peptide SEQ ID No 165 …] | > 75% |
| EYINQGDLHEF [peptide SEQ ID No 275 …] | 50 to 75% |
| EFGSLHLEFL [peptide SEQ ID No 194 …] | < 20% |
| LYHDIFSRL [peptide SEQ ID No 271 …] | > 75% |
| TYTTVPRVAF [peptide SEQ ID No 172 …] | > 75% |
| KYTSWYVAL [peptide SEQ ID No 228 …] | > 75% |
| LYLKLWNLI [peptide SEQ ID No 214 …] | 50 to 75% |
| IFIEVFSHF [peptide SEQ ID No 178 …] | 50 to 75% |
| KYMVYPQTF [peptide SEQ ID No 267 …] | > 75% |
| QYLQDAYSF [peptide SEQ ID No 272 …] | > 75% |
| SYALLTYMI [peptide SEQ ID No 192 …] | > 75% |
| KFVDSTFYL [peptide SEQ ID No 282 …] | > 75% |
| RYISDQLFTNF [peptide SEQ ID No 278 …] | > 75% |
| VYEDQVGKF [peptide SEQ ID No 170 …] | 20 to 49% |
| VFTSTARAF [peptide SEQ ID No 183 …] | 50 to 75% |
| TYIKPISKL [peptide SEQ ID No 273 …] | 50 to 75% |
| VHIPEVYLI [peptide SEQ ID No 205 …] | 50 to 75% |
| IYLVSIPEL [peptide SEQ ID No 161 …] | > 75% |
| LYLDKATLI [peptide SEQ ID No 198 …] | 50 to 75% |

| Binder | peptide exchange yield |
| --- | --- |
| EYSLFPGQVVI [peptide SEQ ID No 197 …] | 50 to 75% |
| YYVYIMNHL [peptide SEQ ID No 225 …] | 50 to 75% |
| RYPDNLKHLYL [peptide SEQ ID No 280 …] | > 75% |
| VFTRVSSFL [peptide SEQ ID No 162 …] | 50 to 75% |
| LFIPSSKLLFL [peptide SEQ ID No 171 …] | 50 to 75% |
| IYKVGAPTI [peptide SEQ ID No 185 …] | 50 to 75% |
| NYINRILKL [peptide SEQ ID No 167 …] | > 75% |
| TYGDAGLTYTF [peptide SEQ ID No 283 …] | 50 to 75% |
| WYVNGVNYF [peptide SEQ ID No 189 …] | 20 to 49% |
| MYDSYWRQF [peptide SEQ ID No 179 …] | > 75% |
| VYVSDIQEL [peptide SEQ ID No 288 …] | 50 to 75% |
| RYPDNLKHL [peptide SEQ ID No 286 …] | 20 to 49% |
| YFDKVVTL [peptide SEQ ID No 215 YFDKVVTL] | 20 to 49% |
| EYPLVINTL [peptide SEQ ID No 219 …] | 50 to 75% |
| TYSVSFPMF [peptide SEQ ID No 195 …] | > 75% |
| RYSTGLAGNLL [peptide SEQ ID No 221 …] | 50 to 75% |
| RFHPTPLLL [peptide SEQ ID No 193 …] | > 75% |
| HYSQELSLLYL [peptide SEQ ID No 158 …] | > 75% |
| TYTQDFNKF [peptide SEQ ID No 208 …] | 50 to 75% |
| EYQENFLSF [peptide SEQ ID No 206 …] | 50 to 75% |
| AYLHSHALI [peptide SEQ ID No 274 …] | > 75% |
| YYLEVGKTLI [peptide SEQ ID No 211 …] | > 75% |
| QYSSVFKSL [peptide SEQ ID No 216 …] | > 75% |
| GFFIFNERF [peptide SEQ ID No 190 …] | 50 to 75% |
| VFKASKITF [peptide SEQ ID No 191 …] | 50 to 75% |

| Binder | peptide exchange yield |
| --- | --- |
| FYSRLLQKF [peptide SEQ ID No 203 …] | 50 to 75% |
| EYNQWFTKL [peptide SEQ ID No 176 …] | 50 to 75% |
| IFLDYEAGTLSF [peptide SEQ ID No 227 …] | > 75% |
| VYPWLGALL [peptide SEQ ID No 177 …] | > 75% |
| FFPPTRQMGLLF [peptide SEQ ID No 217 …] | > 75% |
| KFSSFSLFF [peptide SEQ ID No 164 …] | 50 to 75% |
| IYDDSFIRPVTF [peptide SEQ ID No 180 …] | 50 to 75% |
| VYGFQWRHF [peptide SEQ ID No 276 …] | > 75% |
| YYEVHKELF [peptide SEQ ID No 175 …] | > 75% |
| VFQNFPLLF [peptide SEQ ID No 184 …] | > 75% |
| KYPVEWAKF [peptide SEQ ID No 289 …] | > 75% |
| KYQDILETI [peptide SEQ ID No 168 …] | > 75% |
| TYLRDQHFL [peptide SEQ ID No 187 …] | > 75% |
| KYIPYKYVI [peptide SEQ ID No 223 …] | 50 to 75% |
| RYFKGLVF [peptide SEQ ID No 188 RYFKGLVF] | 50 to 75% |
| LYIDRPLPYL [peptide SEQ ID No 196 …] | 50 to 75% |
| IFPQFLYQF [peptide SEQ ID No 186 …] | > 75% |
| LYLDIINLF [peptide SEQ ID No 181 …] | > 75% |
| DYLKGLASF [peptide SEQ ID No 163 …] | > 75% |
| VYRDETGELF [peptide SEQ ID No 226 …] | 50 to 75% |
| VYVGGGQIIHL [peptide SEQ ID No 174 …] | 50 to 75% |
| IYTMIYRNL [peptide SEQ ID No 210 …] | > 75% |
| VYTLDIPVL [peptide SEQ ID No 160 …] | > 75% |
| IYSWILDHF [peptide SEQ ID No 173 …] | > 75% |
| TYIESASEL [peptide SEQ ID No 279 …] | 50 to 75% |
